Source: paper PMC6208366 (2018)
Like-named read-outs stand apart in the source and are kept apart here.

Legend:
[1] = molecular target: T1, full-length human Tau (htau40, 441 residues, 2N4R) (human, UniProt P10636-8 1-441)
[2] = molecular target: T1, full-length human Tau (htau40, 441 …); remark: listed apart in the source
human full-length Hsp90β = human full-length Hsp90β (human, UniProt P08238 1-724); test: ITC
[3] = molecular target: T1, full-length human Tau (htau40, 441 …); test: Hsp90 in presence of FKBP51 (1:1)

human full-length Hsp90β, sequence (P08238 whole entry): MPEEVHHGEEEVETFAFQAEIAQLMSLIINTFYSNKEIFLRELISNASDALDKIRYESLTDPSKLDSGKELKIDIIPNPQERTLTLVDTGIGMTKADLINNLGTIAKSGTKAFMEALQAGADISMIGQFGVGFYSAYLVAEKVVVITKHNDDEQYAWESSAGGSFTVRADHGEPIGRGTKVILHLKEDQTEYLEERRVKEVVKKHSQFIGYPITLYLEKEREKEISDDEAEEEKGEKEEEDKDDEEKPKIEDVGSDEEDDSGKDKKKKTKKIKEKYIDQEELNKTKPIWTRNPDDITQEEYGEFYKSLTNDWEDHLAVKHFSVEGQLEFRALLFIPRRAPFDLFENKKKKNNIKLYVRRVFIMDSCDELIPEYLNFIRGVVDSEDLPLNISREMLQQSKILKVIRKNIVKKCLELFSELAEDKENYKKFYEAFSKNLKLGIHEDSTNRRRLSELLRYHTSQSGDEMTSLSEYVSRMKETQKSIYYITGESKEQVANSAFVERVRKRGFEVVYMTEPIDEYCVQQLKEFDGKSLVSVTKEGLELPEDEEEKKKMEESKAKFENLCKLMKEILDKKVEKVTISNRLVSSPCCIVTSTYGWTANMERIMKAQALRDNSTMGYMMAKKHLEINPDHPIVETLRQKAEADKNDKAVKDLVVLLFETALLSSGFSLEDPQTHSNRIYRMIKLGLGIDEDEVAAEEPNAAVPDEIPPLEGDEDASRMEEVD

B1: IANBD-labeled Hsp90 M362C (natural protein)
chain: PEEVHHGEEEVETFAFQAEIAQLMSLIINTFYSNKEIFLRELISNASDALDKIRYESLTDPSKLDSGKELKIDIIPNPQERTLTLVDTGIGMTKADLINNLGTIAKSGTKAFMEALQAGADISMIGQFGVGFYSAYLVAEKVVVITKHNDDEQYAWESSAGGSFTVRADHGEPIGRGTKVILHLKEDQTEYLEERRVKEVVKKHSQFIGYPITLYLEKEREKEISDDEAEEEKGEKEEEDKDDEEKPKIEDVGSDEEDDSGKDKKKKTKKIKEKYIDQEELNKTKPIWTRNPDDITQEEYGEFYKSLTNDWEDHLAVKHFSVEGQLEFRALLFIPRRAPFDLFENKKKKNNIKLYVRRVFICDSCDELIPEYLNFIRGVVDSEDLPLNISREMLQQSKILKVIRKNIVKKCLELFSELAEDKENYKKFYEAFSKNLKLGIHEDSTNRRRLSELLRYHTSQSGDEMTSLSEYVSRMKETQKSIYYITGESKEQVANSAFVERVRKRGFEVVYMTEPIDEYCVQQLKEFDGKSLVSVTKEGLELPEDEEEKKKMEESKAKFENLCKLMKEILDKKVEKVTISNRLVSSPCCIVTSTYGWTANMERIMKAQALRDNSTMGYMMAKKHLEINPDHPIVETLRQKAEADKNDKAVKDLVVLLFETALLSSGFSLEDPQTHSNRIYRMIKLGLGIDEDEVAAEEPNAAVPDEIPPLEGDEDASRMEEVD
modifications: IANBD amide fluorescent dye on Cys362 (M362C)
[1]
  Kd: 4.2 µM

B2: full-length human FKBP51 (natural protein)
chain: MTTDEGAKNNEESPTATVAEQGEDITSKKDRGVLKIVKRVGNGEETPMIGDKVYVHYKGKLSNGKKFDSSHDRNEPFVFSLGKGQVIKAWDIGVATMKKGEICHLLCKPEYAYGSAGSLPKIPSNATLFFEIELLDFKGEDLFEDGGIIRRTKRKGEGYSNPNEGATVEIHLEGRCGGRMFDCRDVAFTVGEGEDHDIPIGIDKALEKMQREEQCILYLGPRYGFGEAGKPKFGIEPNAELIYEVTLKSFEKAKESWEMDTKEKLEQAAIVKEKGTVYFKGGKYMQAVIQYGKIVSWLEMEYGLSEKESKASESFLLAAFLNLAMCYLKLREYTKAVECCDKALGLDSANEKGLYRRGEAQLLMNEFESAKGDFEKVLEVNPQNKAARLQISMCQKKAKEHNERDRRIYANMFKKFAEQDAKEEANKAMGKKTSEGVTNEKGTDSQAMEEEKPEGHV
[2]
  Kd: 45.1 µM
Human full-length Hsp90β
  Kd: 0.249 µM

B3: IANBD-labeled Hsp90 M362C/FKBP51 (1:1) complex (complex)
chain 1: not shown
chain 2: B2 chain
modifications: IANBD amide fluorescent dye on Cys362 (M362C)
[3]
  Kd: 8.2 µM
